Experimental data from patent US20250034245A1 (published 2025).

What follows are binders tested against full-length human Siglec-8 (Siglec-8^FL) (human, UniProt Q9NYZ4 17-499) (assay: BLI).
Chain of full-length human Siglec-8 (Siglec-8^FL) (Q9NYZ4 17-499): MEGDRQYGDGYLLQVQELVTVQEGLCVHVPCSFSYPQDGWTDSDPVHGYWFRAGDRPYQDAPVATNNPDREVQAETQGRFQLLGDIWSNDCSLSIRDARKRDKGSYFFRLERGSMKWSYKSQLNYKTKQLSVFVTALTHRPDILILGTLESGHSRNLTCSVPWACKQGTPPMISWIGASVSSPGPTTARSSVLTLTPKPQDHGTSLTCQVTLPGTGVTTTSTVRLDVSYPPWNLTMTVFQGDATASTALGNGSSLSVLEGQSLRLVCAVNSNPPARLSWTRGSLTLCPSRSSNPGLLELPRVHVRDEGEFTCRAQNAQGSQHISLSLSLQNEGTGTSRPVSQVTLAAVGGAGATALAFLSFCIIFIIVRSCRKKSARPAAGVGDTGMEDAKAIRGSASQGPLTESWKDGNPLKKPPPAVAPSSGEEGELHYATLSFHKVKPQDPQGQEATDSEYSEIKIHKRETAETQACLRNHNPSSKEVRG

Row | Binder | Kd [pM]
1 | S8-ATX1E2 (antibody, V domains shown) VH: EVQLVESGGGLVKPGESLRLSCAASGFTFSNAWMSWVRQAPGKGLEWVGRDGGARDYAAPVKGRFTISRDDSKNTLYLQMNTLKTEDTAVYYCTKGAFFFDYWGQGTLVTVSS VL: EIVLTQSPGTLSLSPGERATLSCRASQSVISGYLAWYQQKPGQAPRLLIYGASRRATGITDRFSGSGSGTDFTLIISRLEPEDSAVYYCQQYDSSPRTFGQGTKVEIK | 655
2 | S8-ATX1B6 (antibody, V domains shown) VH: QVQLVESGGGVVLPGRSLRLSCAASGFTFNIYGMHWVRQAPGKGLEWVAVISYDGNNKEYADSVKGRFTISRDSSRNTLYLQMNSLRAEDTAVYYCAKRGYGSSSLEFWGQGTLVTVSS VL: DIQMTQSPSSLSASVGDRVTITCRSSQDIRNDLGWYQQKPGKAPKRLIYASSNLQSGVPSRFSGSGSGTEFTLTISSLQPDDFATYYCLQHNTYPYTFGQGTKLEIK | 2.19
3 | S8-ATX1B4 (antibody, V domains shown) VH: QVQLVESGGGVVQPGRSLRLSCAASGFTFSIYGMHWVRQAPGKGLEWVAVISYDGNNKDYTDSVKGRFTISRDNSKNTLYLQMNSLTAEDTAVYYCAKRGYGSSSLEFWGQGTLVTVSS VL: DIQMTQSPSSLSASVGDRVTITCRASQDIRNDLGWYQQKPGKAPKRLIYATSSLQSGVPSRFSGSRSGAEFTLTVSSLQPEDFATYYCLQHNTYPYTFGQGTKLEIK | 502
4 | S8-ATX1E1 (antibody, V domains shown) VH: EVQLVESGGGLVQPGRSLRLSCAASGFMFDDYVMHWVRQAPGKGLEWVSGINWNSDNIGYADSVKGRFTISRDNAKNSLFLQMNSLRVEDTALYYCAKDIDAAAFDYWGQGTLVTVSS VL: DIVMTQSPLSLPVTPGEPASISCRSSQSLLHSNGYSYLAWYLQKPGQSPQLLIYLVSNRASGVPDRFTGSGSGTDFTLKISRVEAEDVGVYYCMQALQTPWTFGQGTKVEIK | 589
5 | S8-ATX1H4 (antibody, V domains shown) VH: QVQLVQSGTEVKYPGASVKVSCKASGYTFIDYGISWVRQAPGQGLEWMGWISAYNGNTDYAQKLQGRVTMTTDTSTSTAYMDLRSLRSDDTAVYYCAREGEGYCTYGVCPSFDYWGQGTLVTVSS VL: EIVLTQSPGTLSLSPGERATLSCRASQSVSSSYLAWYQQKPGQAPRLLIYGASTRGTGIPDRFSGSGSGTDFTLTISRLEPEDFALYYCQQYGSSPYTFGQGTKLEIK | < 1
6 | S8-ATX1E4 (antibody, V domains shown) VH: QVQLVQSGSELKKPGASVKVSCKTSGYTFTSYAMNWVRQAPGQGLEWMGWINTNTGNPTYAQGFRGRFVFSLDTSVSTAYLQISSLKAEDTAVYYCARDKYSSSWYWFDSWGQGTLVTVSS VL: DIQMTQSPSSLSASVGDRVTITCRPSQNISSYLNWYQQKPGKAPKLLIYAASSLRSGVPSRFSGSGSGTDFTLTVSSLQPEDFANYYCQQSYSTPYTFGRGTKLEIK | 917

The next lines start with the values.

Row | Kd [pM] | Binder
7 | 4.13 | S8-ATX2G9 (antibody, V domains shown) VH: EVQLVESGGGVVRPGGSLRLSCAASGFTFDDYGMSWVRQAPGKGLEWVSGINWNGGSTGYADSVKGRFSISRDNAKNSLYLQMNSLRAEDTALYYCAREGITILRGVIIEDWYFDLWGRGTLVIVSS VL: not shown
8 | 10000 | S8-ATX2B11 (antibody, V domains shown) VH: EVQLVESGGGVVRPGGSLRLSCAASGFTLDDYGMSWVRQAPGKGLEWVSGINWNGATTDYADSVKGRFSISRDNAKNSVYLQMNSLRAEDTALYYCAREGITMVRGVIIEDWYFDLWGRGTLVTVSS VL: not shown
9 | 100000 | S8-ATX2F10 (antibody, V domains shown) VH: EVQLVESGGDLVKSGGSLRLSCAASGFTFSDAWMSWVRQAPGKGLEWVGRIQSKTDGGTTDYVAPVKGRFTISRDDSKDTLYLHMNSLTTEDTAVYYCTTDLYYYGSGSYFLGQGTLVTVSS VL: DIQMTQSPSSLSASVGDRVTITCRASQNIITYLNWYQQKPGKAPKLLIYAASSLQSGVPSRFSGSGSGTDFTLTISSLQPEDFAIYHCQQSYNVPTTFGQGTKLEIK
10 | < 1 | S8-ATX2A3 (antibody, V domains shown) VH: QVQLQESGPGLVKPSETLSLTCTVSGASISGYYWNWIRQPPGKGLEWIGYIHYSGTTNYNPSLKSRITISLDTSENQFSLRLSSVTAADTAVYYCARDWYTGYDWEGFDYWGQGTLVTVSS VL: QSVLTQPPSVSGAPGQRVSFSCTGTSSNIGTGFDVHWYRQLPGTAPKVLIYNNNNRPSGVPDRFSASKSGTSASLAITGLQAEDEADYYCQSYDSSLSGSVFGGGTRLTVL
